Laboratory results from article PMC11112747, “Cyanovirin-N Binding to N-Acetyl-D-glucosamine Requires Carbohydrate-Binding Sites on Two Different Protomers” (Biochemistry, 2024).

Target: chemically synthesized dimannosylated peptide (DM), 12mer peptide from hemagglutinin (HA) with diman

Substance: CVN2L0, a tandem-linked dimeric CVN2 with zero-linker length (tandem repeat of two cyanovirin-N molecules)
- Kd: 3.94 µM
